As a reminder, the Kd is a measure of binding affinity in units of concentration. Read a high Kd as a looser complex. By kon is commonly meant a measure of how fast the partners come together.

The target of this experiment is extracellular domain of Arabidopsis thaliana HAESA-LIKE 3 (HSL3, AT5G25930, residues 23–662) (Arabidopsis thaliana). Description: SPR. In general terms: SPR reads the build-up and loss of mass on a sensor chip optically.
With CTNIP4^48–70 (peptide), the Kd is 1.99 µM and the on-rate constant (kon) was determined as 1140 M⁻¹ s⁻¹.

As to CTNIP4^51–70 (peptide), the dissociation constant (Kd) was 3.91 µM and the on-rate (kon) was found to be 568 M⁻¹ s⁻¹.

With CTNIP4^54–70 (peptide), the Kd came out at 5.29 µM and the kon is 498 M⁻¹ s⁻¹.

The values are drawn from paper doi:10.64898/2025.12.22.696113.
